Consider six molecules from patent US20150232556A1 (INNATE PHARMA, published 2015).

The target of test [1] is T1, KIR3DL2 mutant M1 + 2A5 (S140Q) (human, UniProt P43630 22-455).
T1 construct: On transfected HEK-293T cells; also called Number 37 (1 + 2 A5)
Briefly: binding to HEK-293T cells transfected with KIR3DL2 mutant.

Test [2] addresses T2, KIR3DL2 mutant M3 (R32H; G33R) (human, UniProt P43630 22-455).
T2 construct: On transfected HEK-293T cells; also called Mutant 3; Number 3
The description is as above.

Test [3] addresses T3, KIR3DL2 mutant MD0/HLA1 (F9S; S11A) (human, UniProt P43630 22-455).
T3 construct: On transfected HEK-293T cells; also called Number 31 (DO-HLA1)
The test is described as above.

For test [4], the target named is T4, KIR3DL2 mutant M1 + 2A1 (F50A; R53S) (human, UniProt P43630 22-455).
T4 construct: On transfected HEK-293T cells; also called Number 33 (1 + 2 A1)
The test is described as above.

The target in test [5] is T5, KIR3DL2 mutant M1 + 2 (R13W; A25T; Q27R; I60N; G62S) (human, UniProt P43630 22-455).
T5 construct: On transfected HEK-293T cells; also called Number 30 (1 + 2)
The description is as above.

In test [6] the target is T6, KIR3DL2 mutant M4 (S45I; V47I) (human, UniProt P43630 22-455).
T6 construct: On transfected HEK-293T cells; also called Number 4
The description is as above.

The target of test [7] is T7, KIR3DL2 mutant MD0/HLA2 (H29S; F34A) (human, UniProt P43630 22-455).
T7 construct: On transfected HEK-293T cells; also called Number 32 (DO-HLA2)
The test is described as above.

The target of test [8] is T8, KIR3DL2 mutant M1 (R13W; A25T; Q27R) (human, UniProt P43630 22-455).
T8 construct: On transfected HEK-293T cells; also called Mutant 1; Number 1
The description is as above.

Test [9] addresses T9, KIR3DL2 mutant M5 (P66T) (human, UniProt P43630 22-455).
T9 construct: On transfected HEK-293T cells; also called Number 5
Described as above.

In test [10] the target is T10, KIR3DL2 mutant M6 (R78H; L82P) (human, UniProt P43630 22-455).
T10 construct: On transfected HEK-293T cells; also called Mutant 6; Number 6
Described as above.

The target in test [11] is T11, KIR3DL2 mutant M2 (I60N; G62S) (human, UniProt P43630 22-455).
T11 construct: On transfected HEK-293T cells; also called Mutant 2; Number 2
The test is described as above.

For test [12], the target named is T12, KIR3DL2 mutant M1 + 2A3 (P14S; S15A; H23S) (human, UniProt P43630 22-455).
T12 construct: On transfected HEK-293T cells; also called mutant 2A3; Number 35 (1 + 2 A3)
Briefly: binding to HEK-293T cells transfected with KIR3DL2 mutant; '-' = substantially complete loss of binding.

Test [13] deals with T13, wild-type human KIR3DL2 polypeptide (allele *002) (human, UniProt P43630 22-455).
T13 construct: also called WTaKIR3DL2; unmutated wild type KIR3DL2
Put plainly: binding to HEK-293T cells transfected with wild-type KIR3DL2.

Test [14] has as its target T5, KIR3DL2 mutant M1 + 2 (R13W; A25T; …). Put plainly: binding to HEK-293T cells transfected with KIR3DL2 mutant; '-' = substantially complete loss of binding.
Test [15] deals with T11, KIR3DL2 mutant M2 (I60N; G62S). The description is as above.
For test [16], the target named is T14, KIR3DL2 mutant M19 (A278H; L279S; V282E) (human, UniProt P43630 22-455).
T14 construct: On transfected HEK-293T cells; also called Number 19
Briefly: binding to HEK-293T cells transfected with KIR3DL2 mutant.

Test [17] deals with T15, KIR3DL2 mutant M21 (C281Y; C315P) (human, UniProt P43630 22-455).
T15 construct: On transfected HEK-293T cells; also called Number 21
The test is described as above.

Test [18] deals with T16, KIR3DL2 mutant M17 (P249A) (human, UniProt P43630 22-455).
T16 construct: On transfected HEK-293T cells; also called Mutant 17; Number 17
Described as above.

The target in test [19] is T17, KIR3DL2 mutant M13 (T212A; N218A) (human, UniProt P43630 22-455).
T17 construct: On transfected HEK-293T cells; also called Number 13
Described as above.

Test [20] deals with T18, KIR3DL2 mutant M12 (I196A; L199A; N285A; S286A) (human, UniProt P43630 22-455).
T18 construct: On transfected HEK-293T cells; also called Mutant 12; Number 12
Described as above.

In test [21] the target is T19, KIR3DL2 mutant M18 (A278H; L279A; C281A; V282A) (human, UniProt P43630 22-455).
T19 construct: On transfected HEK-293T cells; also called Number 18
The test is described as above.

Test [22] deals with T20, KIR3DL2 mutant M14 (W226A) (human, UniProt P43630 22-455).
T20 construct: On transfected HEK-293T cells; also called Mutant 14; Number 14
Briefly: binding to HEK-293T cells transfected with KIR3DL2 mutant; '-' = substantially complete loss of binding.

The target of test [23] is T12, KIR3DL2 mutant M1 + 2A3 (P14S; S15A; …). Put plainly: binding to HEK-293T cells transfected with KIR3DL2 mutant.
The target in test [24] is T8, KIR3DL2 mutant M1 (R13W; A25T; Q27R). Put plainly: binding to HEK-293T cells transfected with KIR3DL2 mutant; '-' = substantially complete loss of binding.

B1: antibody 1E2 (antibody, V domains shown)
VH: QVQLQQSGAELVRPGVSVKISCKGSGYTFTDYAMNWVKQSHAKSLEWIGVISTYYGDANYNQKFKGKATMTVDKSSSTAYMELARLTSEDSAIYYCALIYYDYDGSYWGQGTTLTVS
VL: DVVMTQTPLSLPVSLGDQASISCRSSQSLVHSNGNTYLHWYLQKPGQSPKLLIYKVSNRFSGVPDRFSGSGSGTDFTLKISRVEAEDLGVYFCSQSTHVPPYTFGGGTKLEIK
notes: Parental murine monoclonal antibody
As for B1, the binding result in [1], in test [2], in test [3], in [4], in test [5] and in test [6] was “binds” throughout. Further, the binding result in test [7] is “binds”; in test [8], “binds”; in test [9] it was “binds”; in [10], “binds”; in test [11], “binds”; in [12], “no binding”. Besides, in [13], the binding result is given as “binds”.

B2: antibody 10F6 (antibody, V domains shown)
VH: QIQLVQSGPELKKPGETVRISCKASGYTFTIAGMQWVQKMPGKGLKWIGWINTHSGVPKYAEDFKGRFAFSLETSANIAYLQISNLKNEDTATYFCARGGDEGVMDYWGQGTSVTVS
VL: DIVMTQSHKFMSTSVGDRVSITCKASQDVSTAVAWYHQKPGQSPKLLIYWASTRHTGVPDRFSGSGSGTDYTLTISALQAEDLALYYCQQHYNTPWTFGGGTKLEIK
notes: as for B1
As to B2, the binding result in [1], in [2], in [3], in [4], in [6] and in test [7] was “binds” each time. Moreover, the binding result in test [8] is “binds”; in test [9] it was “binds”; in test [10], “binds”; in test [14] it was “no binding”; in test [15] it was “no binding”; in test [13] it was “binds”.

B3: antibody 2B12 (antibody, V domains shown)
VH: QIQLVQSGPELKKPGETVRISCKASGYTFTTAGMQWVQKTPGKGLKWIGWINSHSGVPKYAEDFKGRFAFSLETSASTAYLQISTLKNEDTATYFCARGGDEGVMDYWGQGTSVTVS
VL: DIVMTQSHKFMSTSLGDRVSFTCKASQDVSTAVAWYQQKPGQSPKLLIYWTSTRHTGVPDRFTGSGSGTDYTLTISSVQAEDLALYYCQQHYSTPWTFGGGTKLEIK
notes: as for B1
As for B3, the binding result in test [1], in test [2], in test [3], in test [4], in test [6] and in [7] was “binds” throughout. In addition, the binding result in [8] is recorded as “binds”; in [9], “binds”; in [10], “binds”; in test [14], “no binding”; in test [15], “no binding”; in test [13] it was “binds”.

B4: antibody 1C3 (antibody, V domains shown)
VH: QVQLQQSGAELARPGASVKLSCKASGYTFTSYWMQWVKQRPGQGLEWIGAIYPGDGDTRYTQKFKGKATLTADKSSSTAYMQLSSLASEDSAVYYCARRYDGYYHFDYWGQGTTLTVS
VL: DIVMTQSPSSLAVTAGEKVTMSCKSSQSLLWSVNQKNYLSWYQQKQRQPPKLLIYGASIRESWVPDRFTGSGSGTDFTLTISNVHAEDLAVYYCQHNHGSFLPLTFGSGTKLEIK
notes: Parental murine monoclonal antibody; also called 1C3 MAb
Turning to B4, the binding result in test [16], in test [17], in [18], in test [19], in test [20] and in test [21] was “binds” each time. In addition, the binding result is recorded as “no binding” in test [22] and “binds” in test [13].

B5: antibody 20E9 (antibody, V domains shown)
VH: QVQLQQSGAEVARPGASVKLSCKSSGFTFTTYWMQWVKQRPGQGLEWIGAIYPGDGDTRYTQKFKGKATLTADKSSITAYMQLSSLASEDSAVYYCARRGDYGNYGMDYWGQGTSVTVSS
VL: DVLMTQTPLSLPVSLGDQASISCRSSQSIVHSNGNTYLEWYLQKPGQSPKLLIYKVSNHFSGVPDRFSGSGSGTDFTLKISRVEAEDLGVYYCFQGSHVPPTFGGGTKLEIK
notes: as for B1
For the molecule B5, the binding result in test [16], in [17], in test [18], in test [19], in test [20] and in [21] was “binds” throughout. For the same molecule, the binding result in [22] was “no binding”; in test [13], “binds”.

B6: antibody 13H1 (antibody, V domains shown)
VH: EVQLQQSGPELVKPGASMKISCKASHYSFIGYTMNWVKQRHGKNLEWIGLINPYNGDTTYNQKFKGKASLTVDKSSSTAYMEILSLTSEDSAVYYCARENWGYPYAMDYWGQGTSVTVS
VL: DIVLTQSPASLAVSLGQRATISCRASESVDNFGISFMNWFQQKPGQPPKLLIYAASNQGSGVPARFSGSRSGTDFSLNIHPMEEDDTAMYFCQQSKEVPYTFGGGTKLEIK
notes: as for B1
For B6, the binding result is “binds” in test [2]; “binds” in test [23]; “binds” in test [4]; “binds” in test [6]; “binds” in test [10]; “no binding” in test [14]. Further, the binding result in test [24] and in test [15] was “no binding” throughout.
